# Assay results: patent US20260201008A1, “SECRETIN-DERIVED GLP1R SELECTIVE AGONISTS” (GUBRA A/S, priority 2023, published 2026)
# Square brackets hold non-standard residues; d marks the D form. Ends that are not written are not given here. Aib = CC(C)(N)C(=O)O
# Assays:
# [1] = biological target: human GLP-1 receptor (hGLP1R) (human, UniProt P43220 24-463); test: cell-based or functional assay
# [2] = biological target: human secretin receptor (hSCTR) (human, UniProt P47872 23-440); test: cell-based or functional assay
# Chain of human secretin receptor (hSCTR) (P47872 23-440): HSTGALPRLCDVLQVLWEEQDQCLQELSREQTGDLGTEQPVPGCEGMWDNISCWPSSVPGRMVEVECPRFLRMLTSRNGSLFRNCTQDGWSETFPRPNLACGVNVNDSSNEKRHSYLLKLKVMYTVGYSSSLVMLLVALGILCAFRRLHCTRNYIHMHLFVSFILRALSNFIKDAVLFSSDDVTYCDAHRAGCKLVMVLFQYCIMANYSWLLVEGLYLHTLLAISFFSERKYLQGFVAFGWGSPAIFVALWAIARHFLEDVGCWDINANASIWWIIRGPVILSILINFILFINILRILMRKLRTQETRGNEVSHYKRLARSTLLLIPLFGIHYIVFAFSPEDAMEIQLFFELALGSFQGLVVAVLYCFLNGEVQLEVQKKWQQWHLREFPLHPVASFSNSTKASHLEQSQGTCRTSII
pEC50 hGLPR1 [1],pEC50 hSCTR [2],Binder
10.6 -log M,8.3 -log M,H[Aib]EGTFTSDYSVLLEGAALQRFIQWLV-NH2 (N-terminus assumed; SMILES CC[C@H](C)[C@H](NC(=O)[C@H](Cc1ccccc1)NC(=O)[C@H](CCCNC(=N)N)NC(=O)[C@H](CCC(N)=O)NC(=O)[C@H](CC(C)C)NC(=O)[C@H](C)NC(=O)[C@H](C)NC(=O)CNC(=O)[C@H](CCC(=O)O)NC(=O)[C@H](CC(C)C)NC(=O)[C@H](CC(C)C)NC(=O)[C@@H](NC(=O)[C@H](CO)NC(=O)[C@H](Cc1ccc(O)cc1)NC(=O)[C@H](CC(=O)O)NC(=O)[C@H](CO)NC(=O)[C@@H](NC(=O)[C@H](Cc1ccccc1)NC(=O)[C@@H](NC(=O)CNC(=O)[C@H](CCC(=O)O)NC(=O)C(C)(C)NC(=O)[C@@H](N)Cc1c[nH]cn1)[C@@H](C)O)[C@@H](C)O)C(C)C)C(=O)N[C@@H](CCC(N)=O)C(=O)N[C@@H](Cc1c[nH]c2ccccc12)C(=O)N[C@@H](CC(C)C)C(=O)N[C@H](C(N)=O)C(C)C) [SEQ ID NO: 198]
10.8 -log M,8.1 -log M,H[Aib]EGTFTSDYS[Aib]LLEGAALQRFIQWLV-NH2 (N-terminus assumed; SMILES CC[C@H](C)[C@H](NC(=O)[C@H](Cc1ccccc1)NC(=O)[C@H](CCCNC(=N)N)NC(=O)[C@H](CCC(N)=O)NC(=O)[C@H](CC(C)C)NC(=O)[C@H](C)NC(=O)[C@H](C)NC(=O)CNC(=O)[C@H](CCC(=O)O)NC(=O)[C@H](CC(C)C)NC(=O)[C@H](CC(C)C)NC(=O)C(C)(C)NC(=O)[C@H](CO)NC(=O)[C@H](Cc1ccc(O)cc1)NC(=O)[C@H](CC(=O)O)NC(=O)[C@H](CO)NC(=O)[C@@H](NC(=O)[C@H](Cc1ccccc1)NC(=O)[C@@H](NC(=O)CNC(=O)[C@H](CCC(=O)O)NC(=O)C(C)(C)NC(=O)[C@@H](N)Cc1c[nH]cn1)[C@@H](C)O)[C@@H](C)O)C(=O)N[C@@H](CCC(N)=O)C(=O)N[C@@H](Cc1c[nH]c2ccccc12)C(=O)N[C@@H](CC(C)C)C(=O)N[C@H](C(N)=O)C(C)C) [SEQ ID NO: 197]
10.7 -log M,8.1 -log M,H[Aib]EGTFTSDYSWLLEGAALQRFIQWLV-NH2 (N-terminus assumed; SMILES CC[C@H](C)[C@H](NC(=O)[C@H](Cc1ccccc1)NC(=O)[C@H](CCCNC(=N)N)NC(=O)[C@H](CCC(N)=O)NC(=O)[C@H](CC(C)C)NC(=O)[C@H](C)NC(=O)[C@H](C)NC(=O)CNC(=O)[C@H](CCC(=O)O)NC(=O)[C@H](CC(C)C)NC(=O)[C@H](CC(C)C)NC(=O)[C@H](Cc1c[nH]c2ccccc12)NC(=O)[C@H](CO)NC(=O)[C@H](Cc1ccc(O)cc1)NC(=O)[C@H](CC(=O)O)NC(=O)[C@H](CO)NC(=O)[C@@H](NC(=O)[C@H](Cc1ccccc1)NC(=O)[C@@H](NC(=O)CNC(=O)[C@H](CCC(=O)O)NC(=O)C(C)(C)NC(=O)[C@@H](N)Cc1c[nH]cn1)[C@@H](C)O)[C@@H](C)O)C(=O)N[C@@H](CCC(N)=O)C(=O)N[C@@H](Cc1c[nH]c2ccccc12)C(=O)N[C@@H](CC(C)C)C(=O)N[C@H](C(N)=O)C(C)C) [SEQ ID NO: 200]
10.6 -log M,8.3 -log M,H[Aib]EGTFTSDYSELLEGAALQRFIQWLV-NH2 (N-terminus assumed; SMILES CC[C@H](C)[C@H](NC(=O)[C@H](Cc1ccccc1)NC(=O)[C@H](CCCNC(=N)N)NC(=O)[C@H](CCC(N)=O)NC(=O)[C@H](CC(C)C)NC(=O)[C@H](C)NC(=O)[C@H](C)NC(=O)CNC(=O)[C@H](CCC(=O)O)NC(=O)[C@H](CC(C)C)NC(=O)[C@H](CC(C)C)NC(=O)[C@H](CCC(=O)O)NC(=O)[C@H](CO)NC(=O)[C@H](Cc1ccc(O)cc1)NC(=O)[C@H](CC(=O)O)NC(=O)[C@H](CO)NC(=O)[C@@H](NC(=O)[C@H](Cc1ccccc1)NC(=O)[C@@H](NC(=O)CNC(=O)[C@H](CCC(=O)O)NC(=O)C(C)(C)NC(=O)[C@@H](N)Cc1c[nH]cn1)[C@@H](C)O)[C@@H](C)O)C(=O)N[C@@H](CCC(N)=O)C(=O)N[C@@H](Cc1c[nH]c2ccccc12)C(=O)N[C@@H](CC(C)C)C(=O)N[C@H](C(N)=O)C(C)C) [SEQ ID NO: 199]
